Test [1] deals with primary chicken embryonic fibroblasts (CEF). Kind of test: Proliferation of primary CEF in serum-free media / with supplements. The class given is cell-based. The note with it: serum-free medium, or minimal medium plus supplement (EGF 5 ng/ml, PGE2 0.01 μM, GH 10 ng/ml). The procedure: The CSIFs readily grow on tissue culture plastic in DMEM/F12 medium supplemented with 15% FBS, and 2 mM of […] (FIG. 2D). There are several serum-free medium formulations for the growth of human and mouse fibroblasts, including PCS-201-040 (ATCC) and […] To develop a serum-free medium that supports the culture of CEF and CS IF, the present inventor formulated a minimal medium composed of DMEM/F12 supplemented with 0.1 μM dexamethasone, 10 μg/ml insulin, 5.5 μg/ml transferrin, and 5 ng/ml selenium (ITS), 12 μM linoleic and 12 μM oleic acids, and 2 mM of […]. Cells were plated in FBS containing medium, and transferred to minimal medium after overnight attachment. Basal medium was supplemented with growth factors and hormones showing that while heparin and T3 had little effect of CSIF growth (data not shown), the addition of basic Fibroblast Growth Factor (bFGF, 10 ng/ml) was essential (FIGS. 3C and 3F), showing 20±2 hours doubling time (data not shown).

For the next test, the system named is CSIF. Kind of test: Serum-free medium development: sulforhodamine B stain and protein content after 72 hours. The format is cell-based, chicken. The note with it: supplement added to minimal serum-free medium; bFGF 10 ng/ml, EGF 5 ng/ml, PGE2 0.01 μM, GH 10 ng/ml. Here is the method: FIGS. 3A-F depict the development and identification of serum-free medium for CSIF propagation. Shown are sulforhodamine B stain (FIGS. 3A-E) and protein content quantification (FIG. 3F) following 72 hours of culture with 15% serum (“FBS”), minimal serum-free medium (MIN) alone (FIG. 3B) or with 10 ng/ml basic Fibroblast Growth Factor (bFGF, FIG. 3C), 5 ng/ml Epidermal Growth Factor (EGF, FIG. 3D), 0.01 μM Prostaglandin E2 (PGE2, FIG. 3E), or 10 ng/ml Growth Hormone. Serum-free medium (SFM) contained MIN medium supplemented with bFGF (10 ng/ml), EGF (5 ng/ml), and PGE2 ([…]).
To develop a serum-free medium that supports the culture of CEF and CS IF, the present inventor formulated a minimal medium composed of DMEM/F12 supplemented with 0.1 μM dexamethasone, 10 μg/ml insulin, 5.5 μg/ml transferrin, and 5 ng/ml selenium (ITS), 12 μM linoleic and 12 μM oleic acids, and 2 mM of L-Analyl-L-Glutamine. Cells were plated in FBS containing medium, and transferred to minimal medium after overnight attachment. Basal medium was supplemented with growth factors and hormones showing that while heparin and T3 had little effect of CSIF growth (data not shown), the addition of basic Fibroblast Growth Factor (bFGF, 10 ng/ml) was essential (FIGS. 3C and 3F), showing 20±2 hours doubling time (data not shown).

The source of these data is US12325866B2, “Systems and methods for growing cells in vitro” (Yissum Research Development Company of the Hebrew …, priority 2016, dated 2025).

B1: EGF: epidermal growth factor (protein, UniProt P01133 23-1207, looked up)
Pro-epidermal growth factor: PQHWSCPEGTLAGNGNSTCVGPAPFLIFSHGNSIFRIDTEGTNYEQLVVDAGVSVIMDFHYNEKRIYWVDLERQLLQRVFLNGSRQERVCNIEKNVSGMAINWINEEVIWSNQQEGIITVTDMKGNNSHILLSALKYPANVAVDPVERFIFWSSEVAGSLYRADLDGVGVKALLETSEKITAVSLDVLDKRLFWIQYNREGSNSLICSCDYDGGSVHISKHPTQHNLFAMSLFGDRIFYSTWKMKTIWIANKHTGKDMVRINLHSSFVPLGELKVVHPLAQPKAEDDTWEPEQKLCKLRKGNCSSTVCGQDLQSHLCMCAEGYALSRDRKYCEDVNECAFWNHGCTLGCKNTPGSYYCTCPVGFVLLPDGKRCHQLVSCPRNVSECSHDCVLTSEGPLCFCPEGSVLERDGKTCSGCSSPDNGGCSQLCVPLSPVSWECDCFPGYDLQLDEKSCAASGPQPFLLFANSQDIRHMHFDGTDYGTLLSQQMGMVYALDHDPVENKIYFAHTALKWIERANMDGSQRERLIEEGVDVPEGLAVDWIGRRFYWTDRGKSLIGRSDLNGKRSKIITKENISQPRGIAVHPMAKRLFWTDTGINPRIESSSLQGLGRLVIASSDLIWPSGITIDFLTDKLYWCDAKQSVIEMANLDGSKRRRLTQNDVGHPFAVAVFEDYVWFSDWAMPSVMRVNKRTGKDRVRLQGSMLKPSSLVVVHPLAKPGADPCLYQNGGCEHICKKRLGTAWCSCREGFMKASDGKTCLALDGHQLLAGGEVDLKNQVTPLDILSKTRVSEDNITESQHMLVAEIMVSDQDDCAPVGCSMYARCISEGEDATCQCLKGFAGDGKLCSDIDECEMGVPVCPPASSKCINTEGGYVCRCSEGYQGDGIHCLDIDECQLGEHSCGENASCTNTEGGYTCMCAGRLSEPGLICPDSTPPPHLREDDHHYSVRNSDSECPLSHDGYCLHDGVCMYIEALDKYACNCVVGYIGERCQYRDLKWWELRHAGHGQQQKVIVVAVCVVVLVMLLLLSLWGAHYYRTQKLLSKNPKNPYEESSRDVRSRRPADTEDGMSSCPQPWFVVIKEHQDLKNGGQPVAGEDGQAADGSMQPTSWRQEPQLCGMGTEQGCWIPVSSDKGSCPQVMERSFHMPSYGTQTLEGGVEKPHSLLSANPLWQQRALDPPHQMELTQ
modifications: Pro-epidermal growth factor
As to B1, in test [1], the “Proliferation of primary CEF” value is reported as “supported the proliferation”. Further, in the test on CSIF, the “Effect on CSIF growth / proliferation” value is recorded as “supported the proliferation”.
